The values that follow come from paper PMC13507078, “The BRCT domain enhances DNA binding and catalytic efficiency of fungal PARPs”.

In the data set the target is T1, Af-PARP1 ΔBRCT (Aspergillus fumigatus, UniProt B0Y3N8 196-688).
T1 sequence: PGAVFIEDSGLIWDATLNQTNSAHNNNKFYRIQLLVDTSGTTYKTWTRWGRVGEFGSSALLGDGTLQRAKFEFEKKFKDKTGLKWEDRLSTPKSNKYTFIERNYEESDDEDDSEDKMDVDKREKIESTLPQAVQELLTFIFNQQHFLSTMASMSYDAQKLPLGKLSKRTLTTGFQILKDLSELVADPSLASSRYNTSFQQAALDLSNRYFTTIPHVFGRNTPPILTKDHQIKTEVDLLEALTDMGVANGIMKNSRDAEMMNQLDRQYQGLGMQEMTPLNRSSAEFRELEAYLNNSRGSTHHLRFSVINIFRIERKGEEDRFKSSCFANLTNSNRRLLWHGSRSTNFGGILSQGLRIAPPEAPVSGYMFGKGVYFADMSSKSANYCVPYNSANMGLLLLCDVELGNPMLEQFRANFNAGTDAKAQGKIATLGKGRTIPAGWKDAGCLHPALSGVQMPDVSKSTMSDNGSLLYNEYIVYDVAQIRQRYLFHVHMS
Description: EMSA; similar apparent strength to WT in titration; EMSA: 50 mM HEPES pH 8, 100 mM NaCl, 10% glycerol, 10 mM DTT, 45 min at 4 °C, 7% native PAGE 0.5x TBE; plasmid EMSA: 20 mM Tris-HCl pH 8, 30 mM NaCl, 1 mM EDTA, 1 mM DTT; CD: 20 mM HEPES pH 8, 100 mM NaCl, 0.5 mM TCEP, 2% glycerol. The following applies: protein: recombinant; tags: N-terminal His (HRV3C-cleavable; removed for SAXS/CD); dumbbell of two hairpins, nick. A general note: Mobility shift assays separate free from complexed probe on a gel.

B1: DNA-1 (5'P nick) (structured_DNA)
DNA: CGGTCGATCGTAAGATCGACCGGCGCTGGAGCTTGCTCCAGCGC
modifications: 5'-phosphate
B1: the binding result was “binds”.
